Measured values as given in US7056715B1, “GST sequences from soybean and their use in the production of herbicide resistant plants” (Syngenta Limited, priority 1999, dated 2006).
Each block holds one molecule with its values, some of them ahead of it.

Columns and labels:
[1] = molecular target: T1, Glycine max (soybean) homoglutathione synthetase, recombinant, C-terminal HIS-tag (pET-MS4-His), SEQ ID No. 1 (Glycine max, UniProt Q9M426); assay: Activity of recombinant homoglutathione synthetase (addition of glycine or β-alanine onto γ-glutamylcysteine; monobromobimane derivatisation); format: biochemical; conditions: 250 mM Tris-HCl pH 8.0, 50 mM KCl, 20 mM MgCl2, 5 mM DTT, 10 mM ATP, 1 mM γ-glutamylcysteine; 30° C.
T1 sequence (Q9M426 1-499): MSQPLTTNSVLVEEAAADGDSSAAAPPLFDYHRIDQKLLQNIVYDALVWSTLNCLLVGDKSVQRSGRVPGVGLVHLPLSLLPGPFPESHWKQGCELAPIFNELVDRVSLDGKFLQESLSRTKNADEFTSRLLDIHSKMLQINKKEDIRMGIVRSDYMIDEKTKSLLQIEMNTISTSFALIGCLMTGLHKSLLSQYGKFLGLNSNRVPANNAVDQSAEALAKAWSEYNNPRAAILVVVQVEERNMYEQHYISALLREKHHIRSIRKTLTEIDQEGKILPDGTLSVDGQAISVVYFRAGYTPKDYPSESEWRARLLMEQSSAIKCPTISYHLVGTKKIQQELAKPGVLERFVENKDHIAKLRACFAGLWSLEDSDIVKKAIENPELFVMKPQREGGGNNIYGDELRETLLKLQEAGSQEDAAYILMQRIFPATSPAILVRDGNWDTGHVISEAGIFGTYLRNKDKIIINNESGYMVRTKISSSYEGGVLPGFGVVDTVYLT
Experimental: (§1) A 5′ Nco 1 and 3′ Xho 1 restriction enzyme site were introduced into the homoglutathione synthetase cDNA via PCR using primers MS4-Nco (SEQ ID No. 19) and MS-4-HIS (SEQ ID No. 20). Additionally, the use of the MS4-HIS primer provided a C-terminal HIS-tag to assist purification of the enzyme. 5.2 The resulting PCR fragment was digested with Nco1 and Xho 1 and ligated into similarly digested pET-24d. This vector was termed pET-MS4-His. The purification of homoglutathione synthetase was performed using the following method. E. coli BL21 (DE3) harbouring the pET-MS4-His plasmid (section 1.3) were grown at 30° C. until OD600=0.5, after which isopropyl-β-D-thiogalactoside (IPTG) was added to a final concentration of 0.1 mM. Following a 3 hour incubation the bacteria were collected by centrifugation, re-suspended in buffer A (20 mM Tris, 0.5 M NaCl, 5 mM imidazole pH 8.0) and lysed. […] 5.3 The eluted protein was concentrated using a Centriplus 30 (Amicon™) spin column and re-suspended in buffer A prior to application onto a 1 ml HiTrap chelating column (Phamacia™), pre-charged with NiSO4 and equilibrated as described previously. Affinity bound protein was then recovered using an increasing concentration of 20–200 mM imidiazole and the presence of His-tagged recombinant homoglutathione synthetase was detected using His-tagged antibodies according to known procedures. […]

[2] = test system: transgenic tobacco line T82 3747 (pFT2: soybean GST 3.3 and homoglutathione synthetase); assay: Herbicide tolerance test, transgenic tobacco line T82 3747; format: in vivo, Nicotiana tabacum; conditions: fomesafen 10 g ai ha^-1 to aerial tissue at approximately 10-leaf stage, visual assessment 5 days post application
Text: (§2) 6.1 Plants with increased tolerance to the herbicides acifluorfen and fomesafen were obtained by expression in the plant host of both the active soybean GST 3.3 and the homoglutathione synthetase to further increase levels of homoglutathione, required for the enhanced efficiency function of GST 3.3. 6.2 PCR, using oligonucleotide primers hGSH-Nco1 (SEQ ID No. 21) and hGSH-Kpn1 (SEQ ID No.22) was used to introduce a 5′ Nco1 site and 3′ Kpn1 site into the […]. The resulting PCR product was purified, sequenced, digested with Nco1 and Kpn1 and ligated into the vector pMJB2 (FIG. 1). The expression cassette, comprising the double enhanced CaMV35S promoter: Glucanase II leader, hGSH synthetase cDNA and nos terminator was then excised from pMJB2 using […] and ligated into the similarly digested binary vector pMOG800 (FIG. 3). 6.3 Oligonucleotide primers 3.6-Bgl II (SEQ ID No. 23) and 3.6 Nco1 (SEQ ID No.24) were used to introduce Nco1 and Bgl II sites at the 5′ and 3′ end of the GST 3.6 cDNA respectively. The resulting PCR product was purified, sequenced, digested with Nco1 and Bgl II and sub-cloned into the vector pMOG 1051 (FIG. 2). […] Orientation of the insert was determined by PCR. […]

[3] = test system: transgenic tobacco line T82 3740 (pFT2: soybean GST 3.3 and homoglutathione synthetase); assay: Herbicide tolerance test, transgenic tobacco line T82 3740; format: in vivo, Nicotiana tabacum; conditions: fomesafen 10 g ai ha^-1 to aerial tissue at approximately 10-leaf stage, visual assessment 5 days post application
Text: as §2

[4] = test system: Nicotiana tabacum var. Samsun, WT; assay: Herbicide tolerance test, wild-type tobacco; format: in vivo; conditions: fomesafen 10 g ai ha^-1 to aerial tissue at approximately 10-leaf stage, visual assessment 5 days post application
Experimental: 7.1 The binary vector pFT2 was transformed into Agrobacterium tumefaciens strain LBA 4404 using the freeze thaw method of transformation provided by Holsters et al., 1978. Tobacco transformation and whole plant regeneration was performed using Nicotiana tabacum var. Samsun according to standard protocols detailed by Bevan, 1984. Transformation events were selected on MS-media containing kanamycin. Other transformation methods may be employed for the transformation of other crops, such as soybean. Examples of such methods are referred to below.
9.1 Following tissue culture, kanamycin-resistant plantlets were transferred to 5 inch pots containing John Innes potting compost no. 3. The plants were allowed to develop to approximately the 10-leaf stage and fomesafen applied at 10 g ai ha^−1, formulated with non-ionic surfactant, to the aerial tissue using a track sprayer. Visual assessment of phytotoxicity/plant necrosis is performed 5 days post application.

[5] = substrate: NCCC(=O)O; assay: purified protein, by the assay type; conditions: other: 250 mM Tris-HCl pH 8.0, 50 mM KCl, 20 mM MgCl2, 5 mM DTT, 10 mM ATP, 1 mM γ-glutamylcysteine, 30° C.
[6] = substrate: NCC(=O)O; assay: purified protein, by the assay type; format: biochemical, Glycine max (soybean); conditions: other: 250 mM Tris-HCl pH 8.0, 50 mM KCl, 20 mM MgCl2, 5 mM DTT, 10 mM ATP, 1 mM γ-glutamylcysteine, 30° C.
Experimental: as §1

[7] = GST activity of purified recombinant protein toward fomesafen; format: biochemical; conditions: recombinant enzyme, ±SE, n=2
Experimental: (§3) 4.2 Nde I or Nco I sites were introduced as appropriate into the 5′ end cDNAs encoding glutathione S-transferase and Bam H1 at the 3′ end using PCR. The cDNA was then cloned into pET-24a or pET-24d as appropriate. The resulting plasmids were introduced into E. coli BL21 (DE3) using standard bacterial transformation procedures known to the skilled artisan. Expression and purification of the recombinant GST was performed using anion-exchange chromatography and S-Hexyl-glutathione affinity chromatography according to the methods known in the art (for example, Skipsey et al., 1997). GST activity of the purified recombinant protein toward CDNB, acetochlor, acifluorfen, chlorimuron-ethyl, fluorodifen. fomesafen and metolachlor in the presence of both glutathione and homoglutathione was performed via assays which are described in Andrews et al., 1997 and Skipsey et al., 1997.

[8] = GST activity of purified recombinant protein toward acifluorfen; format: biochemical; conditions: recombinant enzyme, ±SE, n=2
Experimental: as §3

[9] = GST activity of purified recombinant protein toward acetochlor; format: biochemical; conditions: recombinant enzyme, ±SE, n=2
Experimental: as §3

[10] = GST activity of purified recombinant protein toward CDNB; format: biochemical; conditions: recombinant enzyme, ±SE, n=2
Experimental: as §3

[11] = GST activity of purified recombinant protein toward fluorodifen; format: biochemical; conditions: recombinant enzyme, ±SE, n=2
Experimental: as §3

[12] = GST activity of purified recombinant protein toward metolachlor; format: biochemical; conditions: recombinant enzyme, ±SE, n=2
Experimental: as §3

Vmax [1]: 42250 ± 3173 pkats/mg hGS
Molecule: NCCC(=O)O [β-alanine]

Molecule: NCC(=O)O [Glycine]
Vmax [1]: 3300 ± 341 pkats/mg hGS

Molecule: CS(=O)(=O)NC(=O)c1cc(Oc2ccc(C(F)(F)F)cc2Cl)ccc1[N+](=O)[O-] [fomesafen]
% damage [2]: 5%
% damage [3]: 15%
% damage [4]: 55%

B1: Glycine max (soybean) homoglutathione synthetase, recombinant, C-terminal HIS-tag (pET-MS4-His), SEQ ID No. 1 (Glycine max) (protein)
chain: T1 sequence (Q9M426 1-499)
Km [5]: 0.84 ± 0.19 mM
Km [6]: 54.9 ± 18.7 mM

B2: GST 3.2: Recombinant soybean Glutathione-S-transferase 3.2, SEQ ID No. 9 (protein)
chain: MAEVKLHGFWYSPYTLRVVWTLKLKDIPYQNIEEDRYNKSLQLLEYNPVYKKTPVLVHNGKPLCESMLIVEYIDEIWAHNSLLPADPYERALARFWVKYADDDMFSAVIAFFLSNNDEEREKSIEKIWEHLRVVENQCFGDQKKFFGGDIINIMDIAFGSIFKILVVAEDILDAKVLEDEKFPHLHSWYNNFKDVAVIKENLPDHEKMVAFAKFIREKRLACT
modifications: Glycine max
GST activity toward fomesafen, GSH ([7]; thiol GSH): 21.3 pkat mg-1
GST activity toward fomesafen, hGSH ([7]; thiol hGSH): 201.6 pkat mg-1
GST activity toward acifluorfen, GSH ([8]; thiol GSH): 7.5 pkat mg-1
GST activity toward acifluorfen, hGSH ([8]; thiol hGSH): 23.2 pkat mg-1
GST activity toward acetochlor, GSH ([9]; thiol GSH): 418.0 pkat mg-1
GST activity toward acetochlor, hGSH ([9]; thiol hGSH): 143.0 pkat mg-1
GST activity toward CDNB, GSH ([10]; thiol GSH): 24.9 nkat mg-1
GST activity toward CDNB, hGSH ([10]; thiol hGSH): 10.3 nkat mg-1
GST activity toward fluorodifen, GSH ([11]; thiol GSH): 78.2 pkat mg-1
GST activity toward fluorodifen, hGSH ([11]; thiol hGSH): 68.0 pkat mg-1
GST activity toward metolachlor, GSH ([12]; thiol GSH): 253.0 pkat mg-1
GST activity toward metolachlor, hGSH ([12]; thiol hGSH): 191.5 pkat mg-1
